Key:
Aβ(1-42) = Aβ(1-42) (UniProt P05067)
Aβ(1-40) = Aβ(1-40) (UniProt P05067)

MMP2, sequence (P08253 110-660): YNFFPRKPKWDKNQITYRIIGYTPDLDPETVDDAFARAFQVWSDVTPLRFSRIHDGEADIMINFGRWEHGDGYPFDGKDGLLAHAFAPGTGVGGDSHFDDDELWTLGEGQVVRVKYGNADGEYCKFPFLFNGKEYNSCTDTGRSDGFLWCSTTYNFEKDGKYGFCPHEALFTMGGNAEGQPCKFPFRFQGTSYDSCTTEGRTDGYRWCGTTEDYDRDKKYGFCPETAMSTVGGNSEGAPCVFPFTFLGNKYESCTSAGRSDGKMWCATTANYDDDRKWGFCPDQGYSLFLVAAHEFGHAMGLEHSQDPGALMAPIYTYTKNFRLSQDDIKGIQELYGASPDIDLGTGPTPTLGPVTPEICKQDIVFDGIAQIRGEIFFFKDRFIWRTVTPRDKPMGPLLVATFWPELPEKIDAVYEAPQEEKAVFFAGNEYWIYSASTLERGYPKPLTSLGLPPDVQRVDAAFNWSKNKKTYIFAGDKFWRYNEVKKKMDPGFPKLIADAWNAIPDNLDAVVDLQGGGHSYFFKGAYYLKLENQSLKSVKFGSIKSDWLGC

MMP2
stated: cleaves; Aβ cleavage assay, intact Aβ by ELISA (% untreated) (Aβ(1-42)): drifts from about 90 % to about 65 % between 0.01 and 30 nM (no flat upper plateau), about 40 % near 100 nM, about 0 % from about 300 nM | stated: cleaves; Aβ cleavage assay, intact Aβ by ELISA (% untreated) (Aβ(1-40)): about 105 % up to about 30 nM, about 45 % near 100 nM, about 0 % from about 300 nM

NEP2
stated: cleaves; Aβ cleavage assay, intact Aβ by ELISA (% untreated) (Aβ(1-42)): stays near 90 % up to about 10 nM, about 60 % near 30 nM, about 35 % near 100 nM, about 0 % at the highest concentration (about 1000 nM) | stated: cleaves; Aβ cleavage assay, intact Aβ by ELISA (% untreated) (Aβ(1-40)): stays near 100 % up to about 10 nM, about 60 % near 30 nM, about 25 % near 100 nM, about 0 % from about 300 nM

MMP9
stated: cleaves; Aβ cleavage assay, intact Aβ by ELISA (% untreated) (Aβ(1-42)): about 80 % up to about 30 nM, about 60 % near 100 nM, about 35 % near 300 nM, below 10 % at the highest concentration (about 1000 nM), no lower plateau | stated: cleaves; Aβ cleavage assay, intact Aβ by ELISA (% untreated) (Aβ(1-40)): about 100 % up to about 30 nM, about 80 % near 100 nM, about 40 % near 300 nM, about 10 % at the highest concentration (about 1000 nM), no lower plateau

MTSP1
stated: cleaves; Aβ cleavage assay, intact Aβ by ELISA (% untreated) (Aβ(1-42)): about 100 % up to about 10 nM, about 70 % near 100 nM, about 47 % near 300 nM, about 20 % at the highest concentration (about 1000 nM), no lower plateau | stated: cleaves; Aβ cleavage assay, intact Aβ by ELISA (% untreated) (Aβ(1-40)): about 100 % up to about 30 nM, about 70 % near 100 nM, about 35 % near 300 nM, about 13 % at the highest concentration (about 1000 nM), no lower plateau

ECE1
stated: cleaves; Aβ cleavage assay, intact Aβ by ELISA (% untreated) (Aβ(1-42)): near 100 % up to about 10 nM, falls only to about 60 % at the highest concentration (about 1000 nM), no lower plateau | stated: cleaves; Aβ cleavage assay, intact Aβ by ELISA (% untreated) (Aβ(1-40)): near 100 % up to about 10 nM, falls to about 30 % at the highest concentration (about 1000 nM), no lower plateau
